Biological target: soluble semaphorin 4D
Assay: SPR; surface plasmon resonance imaging (SPRi) of TPs and sSema4D; who was immobilised and the conditions are not told in the main text
Settings: both partners purified

Chain of soluble semaphorin 4D (chain, as listed by the source): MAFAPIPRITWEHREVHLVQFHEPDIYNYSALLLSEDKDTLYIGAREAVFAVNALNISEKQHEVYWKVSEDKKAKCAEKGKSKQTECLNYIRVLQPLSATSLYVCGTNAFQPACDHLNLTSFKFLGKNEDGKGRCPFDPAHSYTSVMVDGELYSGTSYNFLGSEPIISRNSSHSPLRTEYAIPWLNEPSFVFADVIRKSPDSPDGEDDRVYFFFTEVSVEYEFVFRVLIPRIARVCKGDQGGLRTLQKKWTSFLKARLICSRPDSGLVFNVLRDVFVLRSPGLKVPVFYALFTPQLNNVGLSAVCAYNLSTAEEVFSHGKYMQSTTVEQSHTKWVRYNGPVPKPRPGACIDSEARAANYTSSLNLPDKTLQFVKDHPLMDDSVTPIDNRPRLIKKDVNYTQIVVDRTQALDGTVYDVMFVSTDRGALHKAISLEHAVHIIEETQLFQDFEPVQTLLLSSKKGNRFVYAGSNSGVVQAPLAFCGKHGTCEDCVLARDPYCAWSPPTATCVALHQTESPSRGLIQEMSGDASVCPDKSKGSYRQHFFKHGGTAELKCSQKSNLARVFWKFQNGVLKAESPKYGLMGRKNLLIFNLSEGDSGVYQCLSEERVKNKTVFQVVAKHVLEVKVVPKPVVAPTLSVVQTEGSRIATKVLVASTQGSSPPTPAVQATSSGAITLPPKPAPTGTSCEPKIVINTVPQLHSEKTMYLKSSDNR

| Binder | Kd |
| --- | --- |
| KNKAAKG (Limits taken by convention as the full extracellular domain after the signal peptide. Species is not printed for the assayed protein; human is assumed, mouse O09126 24-733 is the alternative. Natural) [TP-7] | 14.6 nM |
| KQKRPRH (Limits taken by convention as the full extracellular domain after the signal peptide. Species is not printed for the assayed protein; human is assumed, mouse O09126 24-733 is the alternative. Natural) [TP-2] | 41.7 nM |

Reference: publication PMC9875641, “Ophthalmic Solution of Smart Supramolecular Peptides to Capture Semaphorin 4D against Diabetic Retinopathy” (Advanced Science, 2022)
